Results taken from patent publication US7090834B1, “Vascular endothelial cell growth factor variants and uses thereof” (Genentech, Inc., priority 1999, dated 2006).
Numbering of substitutions follows the chain as printed. In names and notes the source's numbering stands.

Key:
[1] = target: T1, KDR receptor (soluble radio-immuno receptor-binding assay) (UniProt P35968 20-764, limits assumed); assay: soluble radio-immuno receptor-binding assay (RIA)
T1 construct: the receptor construct is not described
Method: For example, quantitative binding measurements were carried out using a soluble radio-immuno receptor-binding assay (RIA), as described in Example 6 above.

PLC-gamma in HUVEC cells = assay: PLC-gamma tyrosine phosphorylation after immunoprecipitation; format: cell-based, human; conditions: 20 ng/ml, 5 minutes, FIG. 13A
Method: In order to determine which VEGF receptor(s) are involved in PLC-gamma activation in primary endothelial cells, HUVEC cells were treated with native VEGF or VEGF receptor-selective variants and PLC-gamma phosphorylation was assessed after immunoprecipitation.
Passage 4–7 HUVEC cells (Cell Systems, Kirkland, Wash.) were grown in Cell System's complete medium (AZ0-500) with 10% fetal calf serum and growth factors on gelatin-coated dishes and made quiescent by 14 hour starvation in 0.2% serum. […] The cells were then lysed in 0.5–1 ml RIPA buffer containing 0.1 mM sodium orthovanadate, 5 mM para-nitrophenylphosphate, 10 mM sodium fluoride, 0.5 micromolar okadaic acid and a protease inhibitor cocktail (Roche MB 1836145). PLC-gamma was then immunoprecipitated from whole cell lysates using monoclonal antibodies (Upstate Biotechnology) and analyzed for tyrosine phosphorylation (FIG. 13A) or lysates were immunoprecipitated with monoclonal antibodies against p85 PI 3′-kinase (purchased from Transduction Labs (P13020) and Neomarkers (MS424-P)) and tested for phosphotyrosine using phosphotyrosine antibodies PY20 or E120H (Transduction Labs) (FIG. 13B). Immunoprecipitation was conducted as follows. Protein A/G beads (Pierce) were blocked for nonspecific protein binding in 50 mM HEPES pH 7.2, 0.1% TX-100, 150 mM NaCl and 1 mg/ml ovalbumin for 30 minutes. Antibodies were precoupled in the same buffer for 1 hour at 4° C. with head over end rotation and beads were washed 3 times in lysis buffer. Beads were added to the lysates and rotated overnight. Beads were washed sequentially in 50 mM Tris pH 7.6, 150 mM NaCl, 1% TX-100, 1 mM CaCl2; 50 mM Tris pH 7.6, 500 mM NaCl, 0.1% TX-100, 1 mM CaCl2 and 50 mM Tris pH 7.6, 150 mM NaCl, 0.05% TX-100, 1 mM CaCl2. Beads were then resuspended in 2× sample buffer and boiled. Supernatants were applied directly to 4–12% Tris-Glycine gradient gels (Novex).

[2] = test system: ERK1 and ERK2 in HUVEC cells; assay: Activation of MAP kinases, ERK1/ERK2 phosphorylation Western blot; format: cell-based, human; conditions: 50 ng/ml or 10 ng/ml, 5 minutes, FIG. 12A
Method: Passage 4–7 HUVEC cells (Cell Systems, Kirkland, Wash.) were grown in Cell System's complete medium (AZ0-500) with 10% fetal calf serum and growth factors on gelatin-coated dishes and made quiescent by 14 hour starvation in 0.2% serum. […] The HUVEC cells were then lysed in 0.5–1 ml RIPA buffer containing 0.1 mM sodium orthovanadate, 5 mM para-nitrophenylphosphate, 10 mM sodium fluoride, 0.5 micromolar okadaic acid and a protease inhibitor cocktail (Roche MB 1836145). Western blot analysis was then conducted, probing for phosphorylated ERK1 or ERK2 using anti-phospho ERK antiserum (Promega).

corneal angiogenesis = assay: Corneal pocket angiogenesis assay; format: in vivo, Sprague-Dawley rats; conditions: rat, pellet with 200 ng growth factor, day 6, FIGS. 15A and 15B
Method: Assays were performed as described by Polyerini et al., Methods Enzymol., 198:440–450 (1991) with the following modifications. Sprague-Dawley rats were anesthetized using a gas (isoflurane)/injectable ketamine (80 mg/kg)/xylazine (15 mg/kg) combination. The eyes were gently proptosed and secured in place using nontraumatic forceps. With a #15 blade, a 1.5 mm incision was made slightly below the center of the cornea. Using a micro spatula (ST80017, ASSI), the incision was carefully blunt-dissected through the stroma toward the outer canthus of the eye. […] After surgery, the eyes were coated with gentamicin ointment. At day 6, the animals were injected with high molecular weight FITC-dextran and euthanized to allow for visualization of the vasculature. Corneal whole mounts were made of the enucleated eyes and measurements of the neovascular area completed using computer-assisted image analysis (Image-Pro Plus).

HUVEC cells = assay: HUVEC migration, modified Boyden chamber assay; format: cell-based, human; conditions: 18 hour assay, FIG. 14A
Method: One of the central aspects of VEGF action on endothelial cells is its ability to act as a chemoattractant and stimulate the migration of endothelial cells. HUVEC cell migration was analyzed in a modified Boyden chamber assay as follows.
Falcon 8.0 micron filter inserts (Falcon 3097) were coated with type 1 collagen (VITROGEN, COHESION). HUVEC (obtained from Cell Systems, <passage 8) were grown in Cell Systems complete media (4ZO-500) with 10% FCS. Cells were trypsinized and transferred to EBM (Endothelial basal media, Clonetics) with 0.1% BSA for the assay. Cells were plated at 5×10^4 per upper chamber. […] The assay was routinely an 18 hour assay at 37° C. For the LY294002 inhibitor experiments, cells were allowed to adhere for 30 minutes prior to addition of the inhibitor. 20 minutes after inhibitor addition, VEGF was added to the bottom well and the assay was allowed to proceed for only 4 hours to avoid the occurrence of apoptosis associated with the treatment of these primary cells with LY294002 (purchased from Biomol).
Cells were removed from the upper side of the membrane by scraping with a polyurethane swab and then the remaining cells on the bottom side of the membrane were fixed with methanol. Cells were stained with Yo-Pro Iodide nuclear stain (Molecular Probes) and counted under low power fluorescence using an Image-Pro cell recognition program.

[3] = target: T2, FLT-1 receptor (soluble radio-immuno receptor-binding assay) (UniProt P17948 27-758, limits assumed); assay: RIA (essentially as Muller et al. 1997)
T2 construct: the receptor construct is not described

[4] = target: T1, KDR receptor (soluble radio-immuno …); assay: RIA (essentially as Muller et al. 1997)
[5] = target: KDR receptor on HUVEC cells (human, UniProt P35968 20-1356); assay: cell-based or functional assay
KDR (1-3) = target: T3, KDR (1-3) (UniProt P35968 20-327, limits assumed); assay: competition ELISA vs biotinylated native VEGF (8-109) for KDR (1-3)
T3 construct: domain: domains 1 to 3; Genentech reagent; also called KDR (1-3) monomer; domains 1 to 3 of KDR
Method: (§1) Receptor binding assays were performed in 96-well immunoplates (Maxisorp, Nunc-Immunoplate, Nalge Nunc International, Rochester, N.Y.). Each well was coated with 100 μl of a solution containing 8 μg/ml of a monoclonal antibody to KDR known as MAKD5 (Genentech, South San Francisco, Calif.) in 50 mM carbonate buffer at pH 9.6 and incubated at 4° C. overnight. The supernatant was discarded, the wells were washed three times in washing buffer (0.05% Tween 20 in PBS), and the plate was blocked (150 μl per well) with block buffer (0.5% BSA, 0.01% thimerosal in PBS) at room temperature for one hour. The supernatant was discarded, and the wells were washed.
(§2) Aliquots of this mixture (100 μl) were added to the precoated microtiter wells and the plate was incubated for 1 hour at room temperature. […] The wells were then incubated with 3, 3', 5,5'-tetramethyl benzidine (0.2 gram/liter; Kirkegaard & Perry Laboratories, Gaithersburg, Md.) for about 10 minutes at room temperature. Absorbance was read at 450 nm on a Vmax plate reader (Molecular Devices, Menlo Park, Calif.).
(§3) Titration curves were fit with a four-parameter nonlinear regression curve-fitting program (KaleidaGraph, Synergy Software, Reading, Pa.).

Flt-1 receptor = assay: RIA assay, binding to FLT-1 receptor; conditions: relative to native VEGF 165 = 1
Method: Various assays were conducted to examine the properties and biological activities of the I43A/I46A/Q79A/I83A Flt-sel variant. For example, quantitative binding measurements were carried out using a soluble radio-immuno receptor-binding assay (RIA), as described in Example 6 above.

[6] = target: gD-KDR receptor on CHO cells (UniProt P35968 20-1356); assay: cell-based or functional assay
Flt-IgG = target: T4, Flt-IgG (UniProt P17948 27-758, limits assumed); assay: competition ELISA vs biotinylated native VEGF for Flt-IgG
T4 construct: also called chimeric Flt-human Fc molecule; not shown: human IgG Fc
Method: Receptor binding assays were performed in 96-well immunoplates (Maxisorp, Nunc-Immunoplate, Nalge Nunc International, Rochester, N.Y.). Each well was coated with 100 μl of a solution containing 2 μg/ml of rabbit F(ab')2 to human IgG Fc (Jackson ImmunoResearch, West Grove, Pa.) in 50 mM carbonate buffer at pH 9.6 and incubated at 4° C. overnight. The supernatant was then discarded, the wells were washed three times in washing buffer (0.05% Tween 20 in PBS), and the plate was blocked (150 μl per well) with block buffer (0.5% BSA, 0.01% thimerosal in PBS) at room temperature for one hour. The supernatant was discarded, and the wells were washed.
The wells were filled with 100 μl of a solution containing Flt-IgG (a chimeric Flt-human Fc molecule) at 50 ng/ml in assay buffer (0.5% BSA, 0.05% Tween 20 in PBS). The wells were incubated at room temperature for 1 hour and then washed three times in wash buffer (0.05% Tween 20 in PBS).
as §2, with “the” for “this”, “2 hours” for “1 hour”, “g/liter,” for “gram/liter;”

KDR receptor = KDR receptor (Homo sapiens, UniProt P35968); assay: KDR receptor binding ELISA (inhibition of biotinylated native VEGF (8–109) binding); conditions: second figure of the cell, variant midpoint concentration divided by that of native VEGF
Method: as §1
as §2, with “3′, 5,5′-tetramethyl” for “3', 5,5'-tetramethyl”
as §3

T1 sequence (P35968 20-764 limits assumed): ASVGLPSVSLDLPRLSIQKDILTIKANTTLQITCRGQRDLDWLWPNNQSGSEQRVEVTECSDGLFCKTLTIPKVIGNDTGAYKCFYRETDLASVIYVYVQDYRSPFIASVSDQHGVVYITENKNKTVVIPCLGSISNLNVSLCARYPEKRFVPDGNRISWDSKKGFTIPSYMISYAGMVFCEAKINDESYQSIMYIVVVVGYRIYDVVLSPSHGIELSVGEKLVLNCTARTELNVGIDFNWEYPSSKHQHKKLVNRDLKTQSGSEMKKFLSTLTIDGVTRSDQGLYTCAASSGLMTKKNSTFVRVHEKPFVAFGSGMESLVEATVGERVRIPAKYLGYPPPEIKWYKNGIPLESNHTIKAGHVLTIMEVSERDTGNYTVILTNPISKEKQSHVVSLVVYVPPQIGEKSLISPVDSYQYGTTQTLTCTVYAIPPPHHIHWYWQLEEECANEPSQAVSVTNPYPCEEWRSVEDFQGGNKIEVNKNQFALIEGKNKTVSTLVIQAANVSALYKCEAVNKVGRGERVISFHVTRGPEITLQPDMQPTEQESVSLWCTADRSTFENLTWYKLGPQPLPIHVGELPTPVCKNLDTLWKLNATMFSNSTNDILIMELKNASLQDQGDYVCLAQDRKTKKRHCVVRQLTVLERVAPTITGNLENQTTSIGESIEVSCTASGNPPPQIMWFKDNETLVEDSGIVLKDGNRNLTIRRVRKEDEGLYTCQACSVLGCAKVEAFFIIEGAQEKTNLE
Chain of Flt-1 receptor (P17948 27-331 limits assumed): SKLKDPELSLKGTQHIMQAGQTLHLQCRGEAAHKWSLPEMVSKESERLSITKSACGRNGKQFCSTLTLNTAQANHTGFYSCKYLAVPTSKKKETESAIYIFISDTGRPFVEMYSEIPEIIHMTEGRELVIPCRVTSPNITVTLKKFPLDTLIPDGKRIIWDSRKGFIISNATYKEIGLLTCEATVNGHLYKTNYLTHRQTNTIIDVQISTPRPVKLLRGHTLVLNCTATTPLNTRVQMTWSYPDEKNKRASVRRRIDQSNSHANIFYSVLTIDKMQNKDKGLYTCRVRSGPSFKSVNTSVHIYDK
T4 sequence (P17948 27-758 limits assumed): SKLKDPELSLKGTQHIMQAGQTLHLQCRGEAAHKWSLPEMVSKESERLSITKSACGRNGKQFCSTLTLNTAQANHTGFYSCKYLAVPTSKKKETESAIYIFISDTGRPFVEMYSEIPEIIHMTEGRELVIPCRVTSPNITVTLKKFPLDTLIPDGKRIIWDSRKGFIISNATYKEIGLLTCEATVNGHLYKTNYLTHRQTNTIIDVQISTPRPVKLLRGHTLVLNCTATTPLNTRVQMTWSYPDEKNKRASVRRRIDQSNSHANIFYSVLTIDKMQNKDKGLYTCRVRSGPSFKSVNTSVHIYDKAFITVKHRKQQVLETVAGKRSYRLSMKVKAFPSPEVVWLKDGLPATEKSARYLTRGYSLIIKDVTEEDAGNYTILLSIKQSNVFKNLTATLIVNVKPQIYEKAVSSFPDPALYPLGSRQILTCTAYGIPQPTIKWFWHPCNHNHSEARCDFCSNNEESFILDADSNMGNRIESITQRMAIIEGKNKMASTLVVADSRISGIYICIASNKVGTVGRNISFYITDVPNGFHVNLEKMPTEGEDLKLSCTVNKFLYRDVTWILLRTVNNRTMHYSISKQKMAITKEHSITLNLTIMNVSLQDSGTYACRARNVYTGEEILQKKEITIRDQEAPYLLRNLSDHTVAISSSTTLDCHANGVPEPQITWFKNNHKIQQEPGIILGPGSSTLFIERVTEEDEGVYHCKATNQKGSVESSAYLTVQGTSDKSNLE
T2 sequence (P17948 27-758 limits assumed): as above
Chain of KDR receptor on HUVEC cells (P35968 20-1356): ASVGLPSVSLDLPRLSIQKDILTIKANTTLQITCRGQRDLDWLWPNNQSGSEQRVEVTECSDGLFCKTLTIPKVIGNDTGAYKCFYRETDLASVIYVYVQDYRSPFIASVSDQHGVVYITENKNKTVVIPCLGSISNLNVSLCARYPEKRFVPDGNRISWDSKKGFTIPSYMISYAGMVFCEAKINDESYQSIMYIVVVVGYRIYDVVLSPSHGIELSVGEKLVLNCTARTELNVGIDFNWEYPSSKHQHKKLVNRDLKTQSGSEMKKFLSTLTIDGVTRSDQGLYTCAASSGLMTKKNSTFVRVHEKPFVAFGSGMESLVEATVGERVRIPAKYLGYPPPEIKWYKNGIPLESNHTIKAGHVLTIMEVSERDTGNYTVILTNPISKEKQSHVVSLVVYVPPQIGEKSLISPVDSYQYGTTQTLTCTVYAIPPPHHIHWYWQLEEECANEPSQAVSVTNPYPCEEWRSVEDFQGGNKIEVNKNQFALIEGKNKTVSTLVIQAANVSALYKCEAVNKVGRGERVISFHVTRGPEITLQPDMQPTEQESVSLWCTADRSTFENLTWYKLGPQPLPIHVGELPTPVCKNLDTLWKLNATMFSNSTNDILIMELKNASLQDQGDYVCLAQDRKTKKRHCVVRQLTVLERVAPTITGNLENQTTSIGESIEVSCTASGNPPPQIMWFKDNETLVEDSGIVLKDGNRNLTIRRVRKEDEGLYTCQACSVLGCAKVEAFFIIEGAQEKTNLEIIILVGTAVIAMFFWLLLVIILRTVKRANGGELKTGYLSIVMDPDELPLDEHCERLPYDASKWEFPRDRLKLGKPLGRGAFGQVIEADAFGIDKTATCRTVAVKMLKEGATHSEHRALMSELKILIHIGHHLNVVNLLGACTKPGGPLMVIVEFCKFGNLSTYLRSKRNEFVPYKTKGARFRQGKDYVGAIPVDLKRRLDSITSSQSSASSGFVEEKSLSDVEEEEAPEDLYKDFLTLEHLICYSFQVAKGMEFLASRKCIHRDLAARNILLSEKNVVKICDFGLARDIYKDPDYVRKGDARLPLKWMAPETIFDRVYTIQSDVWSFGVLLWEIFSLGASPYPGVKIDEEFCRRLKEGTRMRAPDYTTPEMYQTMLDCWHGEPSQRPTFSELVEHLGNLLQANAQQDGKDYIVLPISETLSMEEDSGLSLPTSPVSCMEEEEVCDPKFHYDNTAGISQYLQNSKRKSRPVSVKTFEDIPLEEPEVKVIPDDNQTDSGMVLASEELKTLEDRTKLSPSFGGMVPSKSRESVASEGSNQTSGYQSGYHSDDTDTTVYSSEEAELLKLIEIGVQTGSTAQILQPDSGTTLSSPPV
T3 sequence (P35968 20-327 limits assumed): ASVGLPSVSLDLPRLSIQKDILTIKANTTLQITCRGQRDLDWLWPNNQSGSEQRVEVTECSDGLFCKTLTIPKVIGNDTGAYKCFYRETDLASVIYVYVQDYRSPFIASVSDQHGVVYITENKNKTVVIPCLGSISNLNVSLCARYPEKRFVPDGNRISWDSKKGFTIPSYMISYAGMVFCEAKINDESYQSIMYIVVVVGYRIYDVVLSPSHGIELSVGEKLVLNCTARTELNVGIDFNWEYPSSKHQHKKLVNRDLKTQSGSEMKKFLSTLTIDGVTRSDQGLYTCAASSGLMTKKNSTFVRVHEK
Chain of KDR receptor (P35968 20-327 limits assumed): as above

B1: Flt-sel (I43A/I46A/Q79A/I83A, 1-109 short form) (ligand, human, UniProt P15692-4 27-135, looked up)
chain: APMAEGGGQNHHEVVKFMDVYQRSYCHPIETLVDIFQEYPDEAEYAFKPSCVPLMRCGGCCNDEGLECVPTEESNITMAIMRAKPHQGQHIGEMSFLQHNKCECRPKKD
notes: also called Flt-1-sel; Flt-1 selective variant
fold reduced KDR-binding affinity (against native VEGF (8-109)) [1]: ≥ 470 fold

B2: Flt-1 selective VEGF variant: Flt-1 selective variant comprising a full length 165 sequence with I43A/I46A/Q79A/I83A (protein)
chain: B1 chain
PLC-gamma phosphorylation (PLC-gamma in HUVEC cells): did not increase PLC-gamma phosphorylation over background levels
phosphorylation of ERK1 and ERK2 [2]: barely detectable phosphorylation of ERK2
induction of corneal angiogenesis (corneal angiogenesis): unable to stimulate angiogenesis over control levels
promotion of HUVEC cell migration (HUVEC cells): unable to increase cell migration over background levels

B3: LK-VRB-1s* (ligand, human, UniProt P15692-4 27-135, looked up)
chain: B1 chain with M18E, Y21L, Q22R, Y25S, A43I, A46I, A79Q, A83I
relative binding affinity (ratio to native VEGF 165) [3]: 14000 ratio
relative binding affinity (ratio to native VEGF 165) [4]: 20 ratio
Endothelial Cell Proliferation Activity (HUVEC, 3H-thymidine) [5]: 0.2 ratio to native VEGF (8-109)
relative binding affinity (ratio to native VEGF (8-109)) (KDR (1-3)): 1 ratio
Relative Binding Affinity, FLT-1 Receptor (RIA) (Flt-1 receptor): 14,000
Phosphorylation-Inducing Activity (KIRA assay) [6]: 0.5 ratio to native VEGF (8-109)
relative binding affinity (ratio to native VEGF (8-109)) (Flt-IgG): 6000 ratio
Relative Binding Affinity, KDR Receptor: ratio to native VEGF (8–109) (KDR receptor): 1 nM/1
